The subject of this assay is amino acid at a terminal position of a polypeptide. In words: Amino acid binding preference of recognition proteins (Tables 1 and 2). The settings on record: Table 1, ClpS proteins; amino acid identity at a terminal position of a polypeptide; inferred from literature and/or demonstrated by the inventors. The text has this: It should be appreciated that these sequences and other examples described herein are meant to be non-limiting, and recognition molecules in accordance with the application can include any homologs, variants thereof, or fragments thereof minimally containing domains or subdomains responsible for peptide recognition.

These results are taken from patent publication US12065466B2, “Methods and compositions for protein sequencing” (Quantum-Si Incorporated, priority 2020, dated 2024).

B1: PS393: ClpS protein, SEQ ID NO: 21 (protein)
chain: MSDEDGEDGDENAVGIATRTRTRTKKPTPYRVLLLNDDYTPMEFVVLVLQRFFRMSIEDATRVMLQVHQKGVGVCGVFTYEVAETKVSQVIDFARQNQHPLQCTLEKA
On to B1, for which the “Binding Pref.” value was “F, Y, W, L”.

B2: PS394: ClpS protein, SEQ ID NO: 22 (protein)
chain: MAERRDTGDDEGTGLGIATKTRSKTKKPTPYRVLMLNDDYTPMEFVVLCLQRFFRMNMEEATRVMLHVHQKGVGVCGVFSYEVAETKVGQVIDFARANQHPLQCTLEKA
In the case of B2, the “Binding Pref.” value was “F, Y, W, L”.

B3: PS382: ClpS protein, SEQ ID NO: 15 (protein)
chain: MSDSPVIKEIKKDNIKEADEHEKKEREKETSAWKVILYNDDIHNFTYVTDVIVKVVGQISKAKAHTITVEAHSTGQALILSTWKSKAEKYCQELQQNGLTVSIIHESQLKDKQKK
Take B3: the “Binding Pref.” value was “F, Y, W, L”.

B4: PS388: ClpS protein, SEQ ID NO: 16 (protein)
chain: MVTTLSADVYGMATAPTVAPERSNQVVRKTYPNYKVIVLNDDFNTFQHVAECLMKYIPGMSSDRAWDLTNQVHYEGQAIVWVGPQEPAELYHQQLRRAGLTMAPLEAA
B4: the “Binding Pref.” value is listed as “F, Y, L”.

B5: PS395: ClpS protein, SEQ ID NO: 23 (protein)
chain: MTVSQSKTQGAPAAQSATELEYEGLWRVVVLNDPVNLMSYVVLVFKKVFGFDETTARKHMLEVHEQGRSVVWSGMREKAEAYAFTLQQWHLTTVLEQDEVR
Regarding B5, the “Binding Pref.” value is recorded as “F, Y, W, L”.

B6: PS390: ClpS protein, SEQ ID NO: 18 (protein)
chain: MLSIAAVTEAPSKGVQTADPKTVRKPYPNYKVIVLNDDFNTFQHVSSCLLKYIPGMSEARAWELTNQVHFEGLAVVWVGPQEQAELYYAQLKNAGLTMAPPEPA
Take B6: the “Binding Pref.” value is “F, Y, L”.

B7: PS392: ClpS protein, SEQ ID NO: 20 (protein)
chain: MSVEIIEKRSTVRKLAPRYRVLLHNDDFNPMEYVVQTLMATVPSLTQPQAVNVMMEAHTNGMGLVIVCALEHAEFYAETLNNHGLGSSIEPDD
As to B7, the “Binding Pref.” value is “F, Y, W”.

B8: PS389: ClpS protein, SEQ ID NO: 17 (protein)
chain: MLNSAAFKAASASPVIAPERSGQVTQKPYPTYKVIVLNDDFNTFQHVHDCLVKYIPGMTSDRAWQLTHQVHNDGQAIVWVGPQEQAELYHQQLSRAGLTMAPIEAA
On to B8, for which the “Binding Pref.” value is listed as “F, Y, L”.

B9: PS368: ClpS protein, SEQ ID NO: 1 (protein)
chain: MASAPSTTLDKSTQVVKKTYPNYKVIVLNDDLNTFDHVANCLIKYIPDMTTDRAWELTNQVHYQGQAIVWTGPQEQAELYHQQLRREGLTMAPLEAA
For B9, the “Binding Pref.” value is reported as “F, Y, W, L”.

B10: PS380: ClpS protein, SEQ ID NO: 13 (protein)
chain: MGDIYGESNPEEVSCIDSLSEEGNELILFNDNIHTFEYVIDCLVAICSLSYEQASNCAYIVDRKGLCTVKHGSYDELLIMYHALVEKDLKVEIR
In the case of B10, the “Binding Pref.” value is reported as “F, W”.

B11: PS391: ClpS protein, SEQ ID NO: 19 (protein)
chain: MGQTVEKPRVEGPGTGLGGSWRVIVRNDDHNTFDHVARTLARFIPGVSLERGHEIAKVIHTTGRAVVYTGHKEAAEHYWQQLKGAGLTMAPLEQG
Regarding B11, the “Binding Pref.” value is “F, Y, W, L”.
